Sequences and labels used below:
B1: MYT1213 (antibody, V domains shown)
VH: QVQLQQPGAEVVKPGASVKMSCKASHYTFTSYYIHWIKQTPGQGLEWVGVIYPGNDDISYNQKFQGKATLTADKSSTTAYMQLSSLTSEDSAVYYCAREVRLRYFDVWGQGTTVTVSS
VL: EIVLTQSPGSLAVSPGERVTMSCKSSQSVFFSSSQKNYLAWYQQIPGQSPRLLIYWASTRESGVPDRFTGSGSGTDFTLTISSVQPEDLAIYYCHQYLSSRTFGQGTKLEIK
notes: IgG; IMGN779 VH variant #1 (G26H)
B2: MYT1215 (antibody, V domains shown)
VH: B1 VH with H26G, T28H
VL: B1 VL
notes: IgG; IMGN779 VH variant #3 (T28H)
B3: MYT1214 (antibody, V domains shown)
VH: B1 VH with H26G, Y27H
VL: B1 VL
notes: IgG; IMGN779 VH variant #2 (Y27H)
B4: MYT1216 (antibody, V domains shown)
VH: B1 VH with H26G, F29H
VL: B1 VL
notes: IgG; IMGN779 VH variant #4 (F29H)
B5: MYT1166 (antibody, V domains shown)
VH: EVQLVQSGAEVKKPGSSVKVSCKASGYTITDHNIHWVRQAPGQSLEWIGYIHPYNGGTDYNQKFKNRATLTVDNPTNTAYMELSSLRSEDTDFYYCVNGNPWLAYWGQGTLVTVSS
VL: DIQLTQSPSTLSASVGDRVTITCRASESLDNYGIRFLTWFQQKPGKAPKLLMYAASNQGSGVPSRFSGSGSGTEFTLTISSLQPDDFATYYCQQTKEVPWSFGQGTKVEVK
notes: IgG; gemtuzumab VH combination #5 (S32H+Y52H)
B6: MYT1174 (antibody, V domains shown)
VH: B5 VH with I29H, H52Y, G57H
VL: B5 VL
notes: IgG; gemtuzumab VH combination #13 (I29H+S32H+G57H)
B7: MYT1605 (antibody, V domains shown)
VH: B5 VH with H32S, H52Y
VL: B5 VL with A54H
notes: IgG; gemtuzumab VL variant #16 (A54H)
B8: MYT1590 (antibody, V domains shown)
VH: B5 VH with H32S, H52Y
VL: B5 VL with R24H
notes: IgG; gemtuzumab VL variant #1 (R24H)
B9: MYT1594 (antibody, V domains shown)
VH: B5 VH with H32S, H52Y
VL: B5 VL with S28H
notes: IgG; gemtuzumab VL variant #5 (S28H)
B10: MYT1617 (antibody, V domains shown)
VH: B5 VH with H32S, H52Y
VL: B5 VL with V98H
notes: IgG; gemtuzumab VL variant #28 (V98H)
B11: MYT1609 (antibody, V domains shown)
VH: B5 VH with H32S, H52Y
VL: B5 VL with Q58H
notes: IgG; gemtuzumab VL variant #20 (Q58H)
B12: MYT1601 (antibody, V domains shown)
VH: B5 VH with H32S, H52Y
VL: B5 VL with R35H
notes: IgG; gemtuzumab VL variant #12 (R35H)
B13: MYT1620 (antibody, V domains shown)
VH: B5 VH with H32S, H52Y
VL: B5 VL with S101H
notes: IgG; gemtuzumab VL variant #31 (S101H)
B14: MYT1593 (antibody, V domains shown)
VH: B5 VH with H32S, H52Y
VL: B5 VL with E27H
notes: IgG; gemtuzumab VL variant #4 (E27H)
B15: MYT1610 (antibody, V domains shown)
VH: B5 VH with H32S, H52Y
VL: B5 VL with G59H
notes: IgG; gemtuzumab VL variant #21 (G59H)
B16: MYT1613 (antibody, V domains shown)
VH: B5 VH with H32S, H52Y
VL: B5 VL with Q94H
notes: IgG; gemtuzumab VL variant #24 (Q94H)
B17: MYT1180 (antibody, V domains shown)
VH: B5 VH with H52Y, Y54H, G57H
VL: B5 VL
notes: IgG; gemtuzumab VH combination #19 (S32H+Y54H+G57H)
B18: MYT1170 (antibody, V domains shown)
VH: B5 VH with H32S, G57H
VL: B5 VL
notes: IgG; gemtuzumab VH combination #9 (Y52H+G57H)
B19: MYT1616 (antibody, V domains shown)
VH: B5 VH with H32S, H52Y
VL: B5 VL with E97H
notes: IgG; gemtuzumab VL variant #27 (E97H)
B20: MYT1171 (antibody, V domains shown)
VH: B5 VH with H32S, H52Y, Y54H, G57H
VL: B5 VL
notes: IgG; gemtuzumab VH combination #10 (Y54H+G57H)
B21: MYT1604 (antibody, V domains shown)
VH: B5 VH with H32S, H52Y
VL: B5 VL with T38H
notes: IgG; gemtuzumab VL variant #15 (T38H)
B22: MYT1599 (antibody, V domains shown)
VH: B5 VH with H32S, H52Y
VL: B5 VL with G33H
notes: IgG; gemtuzumab VL variant #10 (G33H)
B23: MYT1619 (antibody, V domains shown)
VH: B5 VH with H32S, H52Y
VL: B5 VL with W100H
notes: IgG; gemtuzumab VL variant #30 (W100H)
B24: MYT1607 (antibody, V domains shown)
VH: B5 VH with H32S, H52Y
VL: B5 VL with S56H
notes: IgG; gemtuzumab VL variant #18 (S56H)
B25: MYT1181 (antibody, V domains shown)
VH: B5 VH with H32S, Y54H, G57H
VL: B5 VL
notes: IgG; gemtuzumab VH combination #20 (Y52H+Y54H+G57H)
B26: MYT1612 (antibody, V domains shown)
VH: B5 VH with H32S, H52Y
VL: B5 VL with Q93H
notes: IgG; gemtuzumab VL variant #23 (Q93H)
B27: MYT1614 (antibody, V domains shown)
VH: B5 VH with H32S, H52Y
VL: B5 VL with T95H
notes: IgG; gemtuzumab VL variant #25 (T95H)
B28: MYT1176 (antibody, V domains shown)
VH: B5 VH with I29H, H32S, G57H
VL: B5 VL
notes: IgG; gemtuzumab VH combination #15 (I29H+Y52H+G57H)
B29: MYT1179 (antibody, V domains shown)
VH: B5 VH with G57H
VL: B5 VL
notes: IgG; gemtuzumab VH combination #18 (S32H+Y52H+G57H)
B30: MYT1608 (antibody, V domains shown)
VH: B5 VH with H32S, H52Y
VL: B5 VL with N57H
notes: IgG; gemtuzumab VL variant #19 (N57H)
B31: MYT1598 (antibody, V domains shown)
VH: B5 VH with H32S, H52Y
VL: B5 VL with Y32H
notes: IgG; gemtuzumab VL variant #9 (Y32H)
B32: MYT1611 (antibody, V domains shown)
VH: B5 VH with H32S, H52Y
VL: B5 VL with S60H
notes: IgG; gemtuzumab VL variant #22 (S60H)
B33: MYT1596 (antibody, V domains shown)
VH: B5 VH with H32S, H52Y
VL: B5 VL with D30H
notes: IgG; gemtuzumab VL variant #7 (D30H)
B34: MYT1597 (antibody, V domains shown)
VH: B5 VH with H32S, H52Y
VL: B5 VL with N31H
notes: IgG; gemtuzumab VL variant #8 (N31H)
B35: MYT1167 (antibody, V domains shown)
VH: B5 VH with H52Y, Y54H
VL: B5 VL
notes: IgG; gemtuzumab VH combination #6 (S32H+Y54H)
B36: MYT1169 (antibody, V domains shown)
VH: B5 VH with H32S, Y54H
VL: B5 VL
notes: IgG; gemtuzumab VH combination #8 (Y52H+Y54H)
B37: MYT1178 (antibody, V domains shown)
VH: B5 VH with Y54H
VL: B5 VL
notes: IgG; gemtuzumab VH combination #17 (S32H+Y52H+Y54H)
B38: MYT1177 (antibody, V domains shown)
VH: B5 VH with I29H, H32S, H52Y, Y54H, G57H
VL: B5 VL
notes: IgG; gemtuzumab VH combination #16 (I29H+Y54H+G57H)
B39: MYT1615 (antibody, V domains shown)
VH: B5 VH with H32S, H52Y
VL: B5 VL with K96H
notes: IgG; gemtuzumab VL variant #26 (K96H)
B40: MYT1606 (antibody, V domains shown)
VH: B5 VH with H32S, H52Y
VL: B5 VL with A55H
notes: IgG; gemtuzumab VL variant #17 (A55H)
B41: MYT1168 (antibody, V domains shown)
VH: B5 VH with H52Y, G57H
VL: B5 VL
notes: IgG; gemtuzumab VH combination #7 (S32H+G57H)
B42: MYT1602 (antibody, V domains shown)
VH: B5 VH with H32S, H52Y
VL: B5 VL with F36H
notes: IgG; gemtuzumab VL variant #13 (F36H)

Residue numbers refer to the chain shown, from its start. Numbers in names are those of the source.

The target of this experiment is CD33 (Sino Biological, Cat #12238-H08H) (UniProt P20138 18-259). Description: BLI, IgG captured on anti-human Fc sensor, 50 nM CD33, pH 7.4 vs pH 5.4. Background: In BLI a coated tip is dipped into the sample, and binding shifts an interference pattern.
Chain of CD33 (Sino Biological, Cat #12238-H08H) (P20138 18-259 limits assumed): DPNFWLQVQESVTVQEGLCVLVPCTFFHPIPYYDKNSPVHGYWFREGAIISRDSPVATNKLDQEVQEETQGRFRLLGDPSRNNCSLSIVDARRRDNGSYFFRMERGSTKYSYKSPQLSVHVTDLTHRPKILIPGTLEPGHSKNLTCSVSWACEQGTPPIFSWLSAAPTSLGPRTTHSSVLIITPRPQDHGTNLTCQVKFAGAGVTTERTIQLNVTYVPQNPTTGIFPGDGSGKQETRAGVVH
Turning to B1, the binding result was “binds”.

Take B2: the binding result was “binds”.

Turning to B3, the binding result is reported as “binds”.

In the case of B4, the binding result is listed as “binds”.

Take B5: the binding result is recorded as “binds”.

On to B6, for which the binding result is recorded as “binds”.

As for B7, the binding result was “binds”.

As to B8, the binding result was “binds”.

Turning to B9, the binding result is recorded as “binds”.

B10: the binding result is listed as “binds”.

In the case of B11, the binding result is recorded as “binds”.

With B12, the binding result is given as “binds”.

For the molecule B13, the binding result is “binds”.

With B14, the binding result was “binds”.

In the case of B15, the binding result was “binds”.

Turning to B16, the binding result is given as “binds”.

As for B17, the binding result is reported as “binds”.

Turning to B18, the binding result is “binds”.

For B19, the binding result is “binds”.

Regarding B20, the binding result is “binds”.

As for B21, the binding result is recorded as “binds”.

In the case of B22, the binding result was “binds”.

As for B23, the binding result was “binds”.

As for B24, the binding result was “binds”.

B25: the binding result is “binds”.

Turning to B26, the binding result is reported as “binds”.

On to B27, for which the binding result is listed as “binds”.

With B28, the binding result was “binds”.

Regarding B29, the binding result is listed as “binds”.

B30: the binding result is “binds”.

Take B31: the binding result is “binds”.

As to B32, the binding result is “binds”.

As to B33, the binding result is recorded as “binds”.

On to B34, for which the binding result is given as “binds”.

Consider B35, for which the binding result is “binds”.

B36: the binding result is “binds”.

For B37, the binding result is reported as “binds”.

Turning to B38, the binding result is “binds”.

Take B39: the binding result was “binds”.

For the molecule B40, the binding result is reported as “binds”.

For B41, the binding result is listed as “binds”.

In the case of B42, the binding result is “binds”.

(Values after patent US20220324969A1 (MYTHIC THERAPEUTICS, published 2022).)
